Target: PTH receptors on UMR 106 cells (rat (endogenous in UMR 106)) (UniProt P25961)
Sequence of UniProt P25961 (P25961 27-591): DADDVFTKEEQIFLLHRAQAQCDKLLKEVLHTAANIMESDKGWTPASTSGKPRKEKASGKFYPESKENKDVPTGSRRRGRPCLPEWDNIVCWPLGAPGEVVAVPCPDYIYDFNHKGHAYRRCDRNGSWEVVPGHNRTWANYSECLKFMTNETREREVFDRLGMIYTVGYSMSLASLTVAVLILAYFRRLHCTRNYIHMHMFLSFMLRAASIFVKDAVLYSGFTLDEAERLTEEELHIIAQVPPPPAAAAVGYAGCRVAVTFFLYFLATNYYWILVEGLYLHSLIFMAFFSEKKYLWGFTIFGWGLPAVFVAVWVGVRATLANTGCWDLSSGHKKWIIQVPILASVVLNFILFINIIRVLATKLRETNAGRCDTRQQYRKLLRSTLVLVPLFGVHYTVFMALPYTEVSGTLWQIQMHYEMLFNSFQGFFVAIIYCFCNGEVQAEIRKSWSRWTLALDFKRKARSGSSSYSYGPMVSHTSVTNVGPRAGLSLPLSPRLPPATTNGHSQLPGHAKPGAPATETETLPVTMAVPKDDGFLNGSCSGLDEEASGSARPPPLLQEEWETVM

potency in the cAMP bioassay on UMR 106 cells, against the standard: 99.7%
Substance: recombinant human parathyroid hormone (rhPTH 1-34) (peptide)
